Series [1] concerns the molecule itself. Kind of series: crystal structure; FtsQ (58–276) with FtsB (22–103), co-purified complex at 6 mg/ml; P4(1)2(1)2, 2.6 Å, molecular replacement; 0.15 M potassium thiocyanate, 20% PEG 550 MME, 0.1 M sodium cacodylate pH 6.5, 19°C.
Series [2] addresses T1, FtsQ (58–276), periplasmic domain of E. coli FtsQ (Escherichia coli strain K-12, UniProt P06136 58-276).
T1 construct: FtsQ, Escherichia coli K-12, periplasmic domain (alpha and beta domains), residues 58-276; construct printed as M-58-276-GSH6; No tag cleavage is described; also called FtsQ (residues 58 to 276); Q: M-58-276-GSH6; source: E. coli C41(DE3), purified (HisTrap, Sephacryl S300); not shown: His6, C-terminal, kept
Nature of the series: SPR; FtsQ (58–276) immobilised on a CM5 chip by amide coupling (~1,000 RU); Biacore T200, 20°C; 10 mM HEPES pH 7.4, 150 mM NaCl, 0.4% glycerol; analytes injected 120 s, 600 s dissociation, 1:2 dilution series, triplicate. The note with it: both partners purified. For orientation: In SPR one partner is held on a chip, and binding of the other changes the refractive index at the surface.

The target of series [3] is T2, FtsQ (58–276) and FtsB (22–103) added together (Escherichia coli strain K-12 | E. coli, UniProt P06136 58-276; P0A6S5 22-103).
T2 construct: FtsQ, Escherichia coli K-12, periplasmic domain, residues 58-276; as m1; as m2; The two proteins were injected in combination (40 µM each at the start of the dilution series) over immobilised FtsL; also called FtsB and FtsQ; FtsQB complex; source: E. coli C41(DE3), each purified separately (HisTrap, Sephacryl S300), injected in combination
Kind of series: SPR; FtsL (58–121) immobilised on a CM5 chip by amide coupling (~3,300 RU); Biacore T200, 20°C; 10 mM HEPES pH 7.4, 150 mM NaCl, 0.4% glycerol; FtsQ (58–276) and FtsB (22–103) from 40 µM each, alone or in combination. The note with it: both partners purified.

T2 sequence (P06136 58-276, chain 1 of 2, one chain of several): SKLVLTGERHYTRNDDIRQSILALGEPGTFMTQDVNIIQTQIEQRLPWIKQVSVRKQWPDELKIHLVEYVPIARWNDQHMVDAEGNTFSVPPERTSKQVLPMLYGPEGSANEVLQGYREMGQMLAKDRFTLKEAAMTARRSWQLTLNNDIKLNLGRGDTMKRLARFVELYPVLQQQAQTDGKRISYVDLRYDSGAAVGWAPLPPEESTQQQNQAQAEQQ
T1 sequence (P06136 58-276): as the sequence (P06136 58-276, chain 1 of 2, one chain of several) above

B1: FtsB (22–103), periplasmic domain of E. coli FtsB (domain or fragment, UniProt P0A6S5 22-103, looked up)
chain: GKNGIHDYTRVNDDVAAQQATNAKLKARNDQLFAEIDDLNGGQEALEERARNELSMTRPGETFYRLVPDASKRAQSAGQNNR
notes: No tag cleavage is described; source: E. coli C41(DE3), purified (HisTrap, Sephacryl S300); not shown: His6, N-terminal, kept
What is called Kd is a measure of binding affinity in units of concentration. Regarding B1, the binding result in series [1] is listed as “binds”. Besides, binding in series [2] was characterised by a dissociation constant (Kd) of 0.8 µM.

B2: FtsL (58–121), periplasmic domain of E. coli FtsL (domain or fragment, UniProt P0AEN4 58-121, looked up)
chain: HHTRLLTAQREQLVLERDALDIEWRNLILEENALGDHSRVERIATEKLQMQHVDPSQENIVVQK
notes: FtsL, E. coli, periplasmic domain, residues 58-121; Cloned into pET15b like FtsB; source: E. coli C41(DE3), purified (HisTrap, Sephacryl S300)
As to B2, in series [3], the Kd amounted to 11 µM.
